Laboratory results taken from article PMC12302927.

Columns and labels:
Assay in all cases: co-IP; 293T cells co-transfected with HA-tagged STAT1 (WT, K193R, K584R) and FLAG-p300; band intensities quantified; which protein was precipitated not given
HA-tagged STAT1 (WT) = HA-tagged STAT1 (WT) (UniProt P42224)
HA-tagged STAT1 K193R = HA-tagged STAT1 K193R (UniProt P42224)
HA-tagged STAT1 K584R = HA-tagged STAT1 K584R (UniProt P42224)

- relative co-IP band intensity (HA-tagged STAT1 (WT)): 0.202
- relative co-IP band intensity (HA-tagged STAT1 K193R): 0.194
- relative co-IP band intensity (HA-tagged STAT1 K584R): 0.239
Substance: FLAG-p300, Q09472 1-2414
